Assay results published in US20130251707A1.

Molecular target: human TNFR1-Fc (human) (UniProt P19438)
Test: quartz crystal microbalance, TNFR1-Fc immobilized

human TNFR1-Fc (human), sequence (P19438 29-211 limits assumed): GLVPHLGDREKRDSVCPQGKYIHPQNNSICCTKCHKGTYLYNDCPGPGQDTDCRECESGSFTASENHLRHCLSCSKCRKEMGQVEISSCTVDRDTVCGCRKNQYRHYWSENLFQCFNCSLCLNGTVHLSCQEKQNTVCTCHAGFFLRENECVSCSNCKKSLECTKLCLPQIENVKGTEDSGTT

B1: scFv IZI-06.1 (scFv, V domains shown, part only)
VH: QVQLVQSGAEVKKPGSSVKVSCKASGYTFTDFYINWVRQAPGQGLEWIGEIYPYSGHAYYNEKFKARVTITADKSTSTAYMELSSLRSEDTAVYYCARWDFLDYWGQGTTVTVSS
VL: DIVMTQSPLSLPVTPGEPASISCRSSQSLLHSNGNTYLHWYLQKPGQSPQLLIYTVSNRFSGVPDRFSGSGSGTDFTLKISRVEAEDVGVYYCSQSTHVPYTFGGGTKVEIKR
modifications: linker and tags not stated
In the case of B1, the Kd is reported as 2.2 nM, the fold reduced affinity (against ATROSAB and H398) is reported as 10 fold and the koff is reported as 0.00076 s⁻¹. It also gave a kon of 350000 M⁻¹ s⁻¹.
